How the values were obtained:
Format in all cases: biochemical
[1] = biological target: T1, PKC-alpha (Homo sapiens, UniProt P17252); experiment: In vitro kinase assay: peptide phosphorylation by PKC-alpha; conditions: for PKC alpha phosphorylation: normalized to best substrate
T1 construct: purchased Calbiochem
In short: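 Purified active human PKC-alpha, 5-20 ng per well, phosphorylated biotinylated peptides in duplicate wells with 100 μM ATP including 1 uCi/well of ^32P-gamma ATP. The buffer was 100 mM HEPES, 0.05% Triton-X100, 1 mM CaCl2, 20 mM MgCl2, 0.2 mg/ml phosphatidyl serine and PMA 100 ng/ml. Reactions ran at 30° C., usually for 10 minutes, keeping stoichiometry under 5%. They were stopped with ATP/EDTA, captured on streptavidin plates, washed, and counted by scintillation.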

[2] = biological target: T2, PKC-epsilon (Homo sapiens, UniProt Q02156); experiment: In vitro kinase assay: peptide phosphorylation by PKC-epsilon; conditions: for phosphorylation by PKC epsilon: peptide concentration 1 uM; for PKC-epsilon phosphorylation: normalized to best substrate
T2 construct: purchased Calbiochem
T2 sequence (Q02156 1-737): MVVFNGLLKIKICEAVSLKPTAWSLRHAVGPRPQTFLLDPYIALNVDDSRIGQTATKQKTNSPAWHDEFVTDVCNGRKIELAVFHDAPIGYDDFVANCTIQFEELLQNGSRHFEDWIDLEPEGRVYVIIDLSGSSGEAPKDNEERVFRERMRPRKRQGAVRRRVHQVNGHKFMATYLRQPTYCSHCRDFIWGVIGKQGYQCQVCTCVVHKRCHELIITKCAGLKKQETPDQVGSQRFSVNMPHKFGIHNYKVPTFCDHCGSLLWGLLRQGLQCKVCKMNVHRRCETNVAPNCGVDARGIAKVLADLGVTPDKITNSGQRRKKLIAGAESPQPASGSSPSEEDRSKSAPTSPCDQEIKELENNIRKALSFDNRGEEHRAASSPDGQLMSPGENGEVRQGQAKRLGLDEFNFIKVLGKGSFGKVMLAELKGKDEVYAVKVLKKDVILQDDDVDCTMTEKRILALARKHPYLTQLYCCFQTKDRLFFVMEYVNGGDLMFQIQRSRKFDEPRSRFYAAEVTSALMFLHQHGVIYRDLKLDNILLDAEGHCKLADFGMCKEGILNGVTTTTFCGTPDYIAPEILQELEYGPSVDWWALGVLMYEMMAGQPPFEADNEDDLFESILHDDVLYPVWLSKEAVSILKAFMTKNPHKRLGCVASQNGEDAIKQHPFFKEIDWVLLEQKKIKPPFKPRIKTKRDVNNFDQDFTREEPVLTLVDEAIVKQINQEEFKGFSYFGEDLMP
Procedure: Catalytically active preparations of the kinases of interest were either purchased or prepared. Purchased and tested active kinase preparations including the following: PKC-alpha, PKC-delta, PKC-epsilon, PKC-zeta, PKC-mu, PKA, PKG from Calbiochem, ROK alpha/ROCK-II, active from Upstate Biotechnology, and AKT1 from Panvera.
The conditions of the kinase assay and the amount of active kinase used varied with the kinase and with the accuracy needed. For a typical experiment, 5-20 ng of kinase was used per well and each peptide pool was assayed in duplicate wells. Note that the absolute amount of kinase used was not usually a critical parameter, because the desired information related to specificity of the kinase not its absolute activity, and robustness of the assay depends on comparisons of the same amount of kinase on different peptides. The combination of kinase concentration and assay duration was modified to assure that the stoichiometry of peptide phosphorylation never exceeded 5%. The choice of kinase buffer depended on the kinase being analyzed. For studies of PKC, 100 mM HEPES, 0.05% Triton-X100, 1 mM CaCl2, 20 mM MgCl2, 0.2 mg/ml phosphatidyl serine (Avanti Polar Lipids), PMA 100 ng/ml was typically used. The lipid stock was prepared by transferring 3 mg phosphatidyl serine into iced mixture of 450 μl water plus 50 μl of 10% Triton-X100, sonicating 10 times on ice for 1 sec each.
The kinase reaction mixture was assembled by sequential addition to a tube held on ice of: 5 μl peptide (100 μM for final concentration of 10 μM), 15 μl of kinase (typically 5 ng/well, in appropriate kinase buffer), 30 μl of ATP (1 uCi/well of ^32P-gamma ATP in a stock of 167 μM cold ATP in the kinase buffer; for final concentration for 100 μM ATP). The mixture was rapidly warmed to desired reaction temperature (30° C. for PKC) and incubated for the desired duration (usually 10 minutes). The kinase assay was terminated by transfer to 4° C. water batch, and rapid addition of an equal volume (50 μl) of stop solution [0.1M ATP+0.1M EDTA in water, pH 8].
The peptides were then captured from the reaction mixture by transfer to a Reacti-Bind Streptavidin High Binding Capacity Coated Plates (HBC) (Pierce Biotechnology) as follows. The HBC plates were pre-rinsed three times with PBS/Tween PBS/Tween20 0.05% (PBS/Tween). Part of all of the reaction mixture was then transferred wells of a HBC plate pre-filled with 90 μl of phosphate-buffered saline (PBS); typically each aliquots of each phosphorylation reaction were transferred to duplicate HBC plates to assure accuracy by additional replication
For kinase assays done at the standard peptide concentration of 10 μM, the peptide concentration in the reaction mixture becomes 5 μM after addition of the stop solution; consequently 10 μl of the reaction (50 pMoles of peptide) was transferred to the HBC plate. More generally, the amount of reaction mixture transferred was estimated to be about 50 pMoles of peptide. […] The HBC plates were incubated for 0.5 to 1.5 hr at room temperature for complete binding of biotinylated peptides to plate-bound streptavidin. The HBC plates were then washed extensively with PBS/Tween. Five washes were done routinely and additional wash steps were added if the wash solution removed from the plate had measurable radioactivity as detected using a Geiger counter. This step is essential to obtaining a good the signal to noise ratio because the fraction of radioactivity incorporated in the peptides was a tiny fraction of the total in the reaction mixture. The wells were air-dried. A volume of 40-50 μl of microScint-20 (Packard Instruments) was added to each well. The plates were covered with stick-on film sheet. Radioactive emissions were measured in a TopCount NXT Microplate Scintillation and Luminescence Counter (Packard Instruments). Typically samples were counted for 5 minutes (or more) to improve the signal to noise ratio when counts were low. […]

[3] = biological target: T3, PKC-zeta (Homo sapiens, UniProt Q05513); experiment: In vitro kinase assay: peptide phosphorylation by PKC-zeta; conditions: for PKC-zeta phosphorylation: normalized to best substrate
T3 construct: purchased Calbiochem
T3 sequence (Q05513 1-592): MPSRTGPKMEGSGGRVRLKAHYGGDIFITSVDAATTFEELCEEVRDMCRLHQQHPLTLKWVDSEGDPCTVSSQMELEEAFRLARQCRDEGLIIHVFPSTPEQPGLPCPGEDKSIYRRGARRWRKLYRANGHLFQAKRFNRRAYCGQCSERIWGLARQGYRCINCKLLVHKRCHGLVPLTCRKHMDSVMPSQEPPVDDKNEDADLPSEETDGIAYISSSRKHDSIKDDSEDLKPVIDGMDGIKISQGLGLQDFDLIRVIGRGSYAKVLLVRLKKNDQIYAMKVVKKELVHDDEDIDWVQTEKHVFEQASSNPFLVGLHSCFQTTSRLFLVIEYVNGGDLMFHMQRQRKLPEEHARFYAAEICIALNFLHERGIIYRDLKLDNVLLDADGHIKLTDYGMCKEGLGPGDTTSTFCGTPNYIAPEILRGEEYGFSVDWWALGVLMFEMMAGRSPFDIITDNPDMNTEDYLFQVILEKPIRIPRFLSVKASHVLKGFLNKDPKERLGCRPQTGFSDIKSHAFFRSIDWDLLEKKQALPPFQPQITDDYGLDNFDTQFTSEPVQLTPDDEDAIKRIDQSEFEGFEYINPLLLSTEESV

| Substance | phosphorylation by PKC alpha ([1]; peptide concentration 1 uM) | phosphorylation by PKC alpha ([1]; peptide concentration 10 uM) | phosphorylation by PKC epsilon [2] | phosphorylation by PKC zeta ([3]; peptide concentration 1 uM) | phosphorylation by PKC zeta ([3]; peptide concentration 10 uM) | PKC alpha phosphorylation [1] [%] | PKC-epsilon phosphorylation [2] [%] | PKC-zeta phosphorylation [3] [%] |
| --- | --- | --- | --- | --- | --- | --- | --- | --- |
| 153 (TYLLPDKSRQGKRKTSIKRD) [compound 153] | 17 | 22 | 24 | 6 | 13 | – | – | – |
| 152 (DLIEGRKGAQIVKRASLKRG) [compound 152] | 13 | 12 | 25 | 4 | 9 | – | – | – |
| 81 (KRERKTSSKSSVRKRR) [compound 81] | – | – | – | – | – | 62 | 59 | 10 |
| 91 (VHYTSKDTLRKRHYWR) [compound 91] | – | – | – | – | – | 60 | 49 | 12 |
| 88 (KKPFKLSGLSFKRNRKE) [compound 88] | – | – | – | – | – | 48 | 44 | 4 |
| 98 (AGPLRKSSLKKGGRL) [compound 98] | – | – | – | – | – | 25 | 34 | 4 |
| 149 (RVVQSVKHTKRKSSTVMK) [compound 149] | 33 | 52 | 27 | 3 | 5 | – | – | – |
| 97 (KKRSSKKEASMKKVVRP) [compound 97] | – | – | – | – | – | 37 | 16 | 1 |
| 87 (RQGKRKTSIKRDTVNPL) [compound 87] | – | – | – | – | – | 46 | 31 | 3 |
| 151 (PQNSLKASNRKKKRTSFKRK) [compound 151] | 17 | 16 | 24 | 15 | 28 | – | – | – |
| 150 (VDPFYEMLAARKKRISVKKK) [compound 150] | 12 | 11 | 20 | 3 | 6 | – | – | – |
| 148 (RELEQLKAEYLERRASRRRA) [compound 148] | 19 | 22 | 33 | 20 | 20 | – | – | – |

Reference: patent publication US20050064507A1, “Determining kinase specificity” (priority 2003, published 2005)
